Values belong to the binder of their own block, whether it stands above or below them.
What was measured:
[1] = biological target: T1, PTH receptor of UMR106 cell line (rat osteoblast-like osteosarcoma cell line) (rat, UniProt P25961 27-591); assay: cell-based or functional assay
T1 sequence (looked up): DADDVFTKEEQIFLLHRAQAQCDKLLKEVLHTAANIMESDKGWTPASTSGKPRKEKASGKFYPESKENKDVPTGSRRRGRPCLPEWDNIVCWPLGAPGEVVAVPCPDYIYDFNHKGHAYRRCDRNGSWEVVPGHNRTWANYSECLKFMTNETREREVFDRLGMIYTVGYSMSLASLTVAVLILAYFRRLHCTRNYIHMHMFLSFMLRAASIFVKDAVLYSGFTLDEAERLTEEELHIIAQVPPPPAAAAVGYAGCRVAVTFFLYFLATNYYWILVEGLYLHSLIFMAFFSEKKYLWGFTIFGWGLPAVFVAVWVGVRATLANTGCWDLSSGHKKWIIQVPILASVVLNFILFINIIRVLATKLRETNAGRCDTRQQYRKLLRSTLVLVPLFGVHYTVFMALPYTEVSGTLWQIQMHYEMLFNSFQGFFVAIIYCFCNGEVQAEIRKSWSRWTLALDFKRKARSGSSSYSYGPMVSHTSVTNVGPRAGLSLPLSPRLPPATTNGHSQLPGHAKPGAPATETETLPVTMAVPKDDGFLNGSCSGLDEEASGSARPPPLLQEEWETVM

[2] = biological target: T1, PTH receptor of UMR106 cell line (rat …); assay: competition with 125I-(Nle8,18Tyr34)-bPTH (1-34) for binding to UMR106 cells, 15 C, 4 h
Protocol: A binding test to PTH receptor was carried out as followings (see: Chohei Shigeno et al., The Journal of Biological Chemistry, 263(8):3864–3871(1988)): 10^5 UMR106 cells per well was added into a 24 well-plate and cultured for 4 to 8 days. Medium was exchanged every two days and it was exchanged daily at 3 days before the test. On the other hand, in order to prepare (Nle^{8,18}Tyr^34)-bovine PTH (1–34)-NH_2(bPTH (1–34)) (see: Gino V. Segre et al., JBC, 254(15) :6980–6986(1979)) which was labelled with a radioactive isotope, ^125I at a tyrosine residue of carboxy-terminus, bPTH (1–34) was iodinated with Na^125I using chloramine T (Sigma Chemical Co., USA) as a catalyst. […]
Binding affinity of PTH to its receptor was determined by comparing competitive inhibition of rhPTH (1–84) and shPTH (1–84) against ligand binding to the receptor by using the ^125I-labelled (Nle^{8,18}Tyr^34)-bPTH (1–34) as a ligand. […] The solution obtained after extraction was mixed with the solution obtained after washing with 0.5 ml of the binding buffer and counted for its radioactivity employing γ-counter.
Specific binding was determined by subtracting value of nonspecific binding measured by using each competitive hormone of 1 mM from value of binding radioactivity measured above.

EC50 (concentration of hormone required for stimulating production of intracellular cAMP to reach an increase of 50%) [1]: 1.9 nM
IC50 [2]: 18.6 nM
B1: synthetic human PTH (shPTH (1-84), Sigma Chemical Co., USA) (ligand, UniProt P01270 32-115, looked up)
chain: SVSEIQLMHNLGKHLNSMERVEWLRKKLQDVHNFVALGAPLAPRDAGSQRPRKKEDNVLVESHEKSLGEADKADVNVLTKAKSQ
notes: mature; Control hormone, bought; also called synthetic PTH

EC50 (concentration of hormone required for stimulating production of intracellular cAMP to reach an increase of 50%) [1]: 1.3 nM
IC50 [2]: 17.3 nM
B2: human recombinant PTH (rhPTH (1-84)) (ligand, UniProt P01270 32-115, looked up)
chain: B1 chain
notes: mature; also called recombinant human PTH; purified human PTH
